Source: patent US20160002343A1 (AbbVie / Abbott, published 2016)

T1: Repulsive guidance molecule A (Mus musculus (Mouse), UniProt Q6PCX7 48-427, GPI anchor at the C-terminus after removal of 428-454. Autocatalytic cleavage between 169 and 170 may split the protein into two disulfide-linked fragments. The letters carry neither.)
T1 sequence: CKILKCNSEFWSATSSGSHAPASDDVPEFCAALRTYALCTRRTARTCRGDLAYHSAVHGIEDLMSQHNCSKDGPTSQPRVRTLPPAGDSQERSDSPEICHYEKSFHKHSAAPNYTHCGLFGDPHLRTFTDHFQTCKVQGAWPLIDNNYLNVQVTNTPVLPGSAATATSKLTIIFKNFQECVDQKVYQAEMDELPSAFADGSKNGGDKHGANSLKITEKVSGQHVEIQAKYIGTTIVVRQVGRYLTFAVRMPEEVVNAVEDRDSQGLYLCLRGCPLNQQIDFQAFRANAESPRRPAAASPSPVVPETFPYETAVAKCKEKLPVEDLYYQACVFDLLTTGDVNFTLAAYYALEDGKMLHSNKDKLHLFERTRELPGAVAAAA

B1: DVD2366 (bispecific antibody)
VH-VH: EVQLLESGGGLVQPGGSLRLSCAASGFTFSNYGMSWVRQAPGKGLEWVASIRSGGGRTYYSDNVKGRFTISRDNSKNTLYLQMNSLRAEDTAVYYCVRYDHYSGSSDYWGQGTLVTVSSASTKGPQVQLVQSGAEVKKPGASVKVSCKASGFTFSNYGMHWIRQAPGQGLEWIAMIYYDSSKMNYADTVKGRFTITRDNSTNTLYMELSSLRSEDTAVYYCAVPTSHYVVDVWGQGTTVTVSS
VL-VL: DVVMTQSPLSLPVTPGEPASISCKSSQSLLDSDGKTYLNWLLQKPGQSPQRLIYLVSKLDSGVPDRFSGSGSGTDFTLKISRVEAEDVGVYYCWQGTHFPRTFGQGTKVEIKRTVAAPEIVMTQSPATLSVSPGERATLSCQASQDIGNWLAWYQQKPGQSPRLLIYGATSLADGVPARFSGSRSGTEFTLTISSLQSEDFAVYYCLQAYNTPWTFGGGTKVEIK
notes: DVD-Ig
B2: RGMA(AE12-1)-LS-TfR(AB403) (bispecific antibody)
VH: EVQLVQSGAEVKKPGASVKVSCKASGYTFTSHGISWVRQAPGQGLDWMGWISPYSGNTNYAQKLQGRVTMTTDTSTSTAYMELSSLRSEDTAVYYCARVGSGPYYYMDVWGQGTLVTVSSASTKGPSVFPLAPEVQLVESGGGLVQPGGSLRLSCAASGFTFSNYGMHWIRQAPGKGLEWIAMIYYDSSKMNYADTVKGRFTISRDNAKNSLYLQMNSLRAEDTAVYYCAVPTSHYVVDVWGQGTTVTVSS
VL: QSALTQPRSVSGSPGQSVTISCTGTSSSVGDSIYVSWYQQHPGKAPKLMLYDVTKRPSGVPDRFSGSKSGNTASLTISGLQAEDEADYYCCSYAGTDTLFGGGTKVTVLGQPKAAPEIVMTQSPATLSVSPGERATLSCQASQDIGNWLAWYQQKPGQSPRLLIYGATSLADGVPARFSGSRSGTEFTLTISSLQSEDFAVYYCLQAYNTPWTFGGGTKVEIK
B3: RGMA(AE12-1)-SS-TfR(AB403) (bispecific antibody)
VH: EVQLVQSGAEVKKPGASVKVSCKASGYTFTSHGISWVRQAPGQGLDWMGWISPYSGNTNYAQKLQGRVTMTTDTSTSTAYMELSSLRSEDTAVYYCARVGSGPYYYMDVWGQGTLVTVSSASTKGPEVQLVESGGGLVQPGGSLRLSCAASGFTFSNYGMHWIRQAPGKGLEWIAMIYYDSSKMNYADTVKGRFTISRDNAKNSLYLQMNSLRAEDTAVYYCAVPTSHYVVDVWGQGTTVTVSS
VL: B2 VL
B4: RGMA (AE12-1) (antibody, V domains shown)
VH: EVQLVQSGAEVKKPGASVKVSCKASGYTFTSHGISWVRQAPGQGLDWMGWISPYSGNTNYAQKLQGRVTMTTDTSTSTAYMELSSLRSEDTAVYYCARVGSGPYYYMDVWGQGTLVTVSS
VL: QSALTQPRSVSGSPGQSVTISCTGTSSSVGDSIYVSWYQQHPGKAPKLMLYDVTKRPSGVPDRFSGSKSGNTASLTISGLQAEDEADYYCCSYAGTDTLFGGGTKVTVLG
B5: TfR(AB405)-SL-RGMA(AE12-1) (bispecific antibody)
VH: QVQLVQSGAEVKKPGASVKVSCKASGFTFSNYGMHWIRQAPGQGLEWIAMIYYDSSKMNYADTVKGRFTITRDNSTNTLYMELSSLRSEDTAVYYCAVPTSHYVVDVWGQGTTVTVSSASTKGPEVQLVQSGAEVKKPGASVKVSCKASGYTFTSHGISWVRQAPGQGLDWMGWISPYSGNTNYAQKLQGRVTMTTDTSTSTAYMELSSLRSEDTAVYYCARVGSGPYYYMDVWGQGTLVTVSS
VL: EIVMTQSPATLSVSPGERATLSCQASQDIGNWLAWYQQKPGQSPRLLIYGATSLADGVPARFSGSRSGTEFTLTISSLQSEDFAVYYCLQAYNTPWTFGGGTKVEIKRTVAAPSVFIFPPQSALTQPRSVSGSPGQSVTISCTGTSSSVGDSIYVSWYQQHPGKAPKLMLYDVTKRPSGVPDRFSGSKSGNTASLTISGLQAEDEADYYCCSYAGTDTLFGGGTKVTVL
B6: RGMA(AE12-1)-GS-TfR(AB403) DVD-Ig protein (bispecific antibody, human IgG1, not shown: a dimerising Fc or GST)
heavy: EVQLVQSGAEVKKPGASVKVSCKASGYTFTSHGISWVRQAPGQGLDWMGWISPYSGNTNYAQKLQGRVTMTTDTSTSTAYMELSSLRSEDTAVYYCARVGSGPYYYMDVWGQGTLVTVSSGGGGSGGGGSEVQLVESGGGLVQPGGSLRLSCAASGFTFSNYGMHWIRQAPGKGLEWIAMIYYDSSKMNYADTVKGRFTISRDNAKNSLYLQMNSLRAEDTAVYYCAVPTSHYVVDVWGQGTTVTVSS
light: QSALTQPRSVSGSPGQSVTISCTGTSSSVGDSIYVSWYQQHPGKAPKLMLYDVTKRPSGVPDRFSGSKSGNTASLTISGLQAEDEADYYCCSYAGTDTLFGGGTKVTVLGGGSGGGGSGEIVMTQSPATLSVSPGERATLSCQASQDIGNWLAWYQQKPGQSPRLLIYGATSLADGVPARFSGSRSGTEFTLTISSLQSEDFAVYYCLQAYNTPWTFGGGTKVEIKR
B7: RGMA(AE12-1)-GS-TfR(AB402) (bispecific antibody, part only; not given: anti-TfR domains, constants, not shown: a dimerising Fc or GST)
heavy, part: EVQLVQSGAEVKKPGASVKVSCKASGYTFTSHGISWVRQAPGQGLDWMGWISPYSGNTNYAQKLQGRVTMTTDTSTSTAYMELSSLRSEDTAVYYCARVGSGPYYYMDVWGQGTLVTVSSGGGGSGGGGS
light, part: QSALTQPRSVSGSPGQSVTISCTGTSSSVGDSIYVSWYQQHPGKAPKLMLYDVTKRPSGVPDRFSGSKSGNTASLTISGLQAEDEADYYCCSYAGTDTLFGGGTKVTVLGGGSGGGGSG
B8: TfR(AB405)-GS-RGMA(AE12-1) (bispecific antibody, part only; not given: anti-TfR domains, constants, not shown: a dimerising Fc or GST)
heavy, part: GGGGSGGGGSEVQLVQSGAEVKKPGASVKVSCKASGYTFTSHGISWVRQAPGQGLDWMGWISPYSGNTNYAQKLQGRVTMTTDTSTSTAYMELSSLRSEDTAVYYCARVGSGPYYYMDVWGQGTLVTVSS
light, part: GGSGGGGSGQSALTQPRSVSGSPGQSVTISCTGTSSSVGDSIYVSWYQQHPGKAPKLMLYDVTKRPSGVPDRFSGSKSGNTASLTISGLQAEDEADYYCCSYAGTDTLFGGGTKVTVLG
B9: RGMA(AE12-1)-SS-TfR(AB402) (bispecific antibody, part only; not given: Inner anti-TfR domains, linkers, constant regions, not shown: a dimerising Fc or GST)
heavy, part: B4 VH
light, part: B4 VL
B10: TfR(AB405)-LL-RGMA(AE12-1) (bispecific antibody, part only; not given: Outer anti-TfR domains, linkers, constant regions, not shown: a dimerising Fc or GST)
heavy, part: B4 VH
light, part: B4 VL

Target: T2, mouse Transferrin Receptor overexpressed on Hek 293 cells (mouse, UniProt Q62351 1-763)
T2 construct: whole, on cells; also called mTfR; Hek293/mTfR
Assay: cell-based MSD-ECL binding, Hek293/mTfR cells
Description: Meso-scale Discovery (MSD) Electrochemiluminescence (ECL) assays to screen for antibodies or DVD-Ig proteins that bind a desired target antigen expressed on the cell surface were performed as follows: Hek 293 cells overexpressing mouse Transferrin Receptor were added onto MSD 96-well plates (MSD Cat# L11 XB-3, lot#2290-EA). The plates which were blocked using blocking buffer (30% FBS Serum (Hyclone) in PBS) at 37° C. for 1 hour. After incubating at room temperature (RT) for 30 minutes with mild agitation, plates were washed with DPBS 3 times and Abs/DVD-Ig proteins (10,000 ng/ml) were added. After incubating for 1 hour at RT, plates were washed 3 times with DPBS and 25 μl of Goat anti-human Sulfo TAG (MSD Cat# R32AC-, Lot# W001162) at 1 μg/ml was added. Following incubation at RT for 1 hour, plates were washed and MSD read buffer was added before reading on a MSD SECTOR Imager 6000. EC50 values were obtained using Xlfit4 software package.

T2 sequence (Q62351 whole entry): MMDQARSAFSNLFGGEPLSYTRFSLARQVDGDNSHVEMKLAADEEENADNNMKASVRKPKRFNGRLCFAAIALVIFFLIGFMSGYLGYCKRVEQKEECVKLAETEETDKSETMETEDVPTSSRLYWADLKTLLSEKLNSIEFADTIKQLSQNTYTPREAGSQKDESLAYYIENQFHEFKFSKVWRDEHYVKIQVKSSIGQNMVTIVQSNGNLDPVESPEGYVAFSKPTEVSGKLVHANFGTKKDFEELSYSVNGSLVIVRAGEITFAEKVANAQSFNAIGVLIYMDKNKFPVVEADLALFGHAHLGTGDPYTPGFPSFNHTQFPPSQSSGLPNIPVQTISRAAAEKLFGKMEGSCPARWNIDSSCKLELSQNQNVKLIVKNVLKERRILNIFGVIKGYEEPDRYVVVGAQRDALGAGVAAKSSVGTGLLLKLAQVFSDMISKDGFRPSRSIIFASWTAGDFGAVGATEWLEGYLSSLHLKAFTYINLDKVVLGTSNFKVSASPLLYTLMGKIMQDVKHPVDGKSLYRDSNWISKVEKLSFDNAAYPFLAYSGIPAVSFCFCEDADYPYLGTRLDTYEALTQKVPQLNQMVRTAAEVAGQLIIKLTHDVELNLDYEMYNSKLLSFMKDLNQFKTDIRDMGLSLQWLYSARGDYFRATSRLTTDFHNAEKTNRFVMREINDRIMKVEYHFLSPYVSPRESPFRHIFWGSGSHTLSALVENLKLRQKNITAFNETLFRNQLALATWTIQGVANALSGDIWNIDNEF

**Q.** Does B1 bind?
**A.** no binding (tested: 10,000 ng/ml)

Target: T1, Repulsive guidance molecule A
Assay: cell-based or functional assay

**Q.** With B2 as the binder, how does the “BMP Assay IC50” value read?
**A.** < 25 pM

**Q.** For B3, which “BMP Assay IC50” value is on record?
**A.** 1180 pM

**Q.** For B4, which “BMP Assay IC50” value is on record?
**A.** 250 pM

**Q.** For B5, which “BMP Assay IC50” value is on record?
**A.** 730 pM

**Q.** For B6, which “BMP Assay IC50” value is on record?
**A.** < 25 pM

Target: Repulsive guidance molecule A (Mus musculus (Mouse)) (UniProt Q6PCX7)
Assay: cell-based or functional assay

**Q.** How did the BMP Assay IC50 turn out when B7 was run?
**A.** 14 pM

**Q.** B8 was tested. Which BMP Assay IC50 did it give?
**A.** 3120 pM

**Q.** B9 was tested. Which BMP Assay IC50 did it give?
**A.** 436 pM

**Q.** With B10 as the binder, how does the BMP Assay IC50 read?
**A.** 701 pM
